The source of these data is patent US20050107296A1 (INSTITUT DES VAISSEAUX ET DU SANG, published 2005).

The target of this assay is T1, soluble HGF-R, chimeric fusion protein (HGF-R/IgG) comprising the HGF-binding portion of the extracellular … (UniProt P08581 25-932, limits assumed).
T1 construct: also called c-Met; not shown: a portion of IgG
Kind of assay: SPR (BIAcore 2000), N immobilized on the sensor chip, soluble HGF-R/IgG injected at three different doses. For orientation: Surface plasmon resonance follows binding to a sensor surface in real time, without labels.

T1 sequence (P08581 25-932 limits assumed, change not shown): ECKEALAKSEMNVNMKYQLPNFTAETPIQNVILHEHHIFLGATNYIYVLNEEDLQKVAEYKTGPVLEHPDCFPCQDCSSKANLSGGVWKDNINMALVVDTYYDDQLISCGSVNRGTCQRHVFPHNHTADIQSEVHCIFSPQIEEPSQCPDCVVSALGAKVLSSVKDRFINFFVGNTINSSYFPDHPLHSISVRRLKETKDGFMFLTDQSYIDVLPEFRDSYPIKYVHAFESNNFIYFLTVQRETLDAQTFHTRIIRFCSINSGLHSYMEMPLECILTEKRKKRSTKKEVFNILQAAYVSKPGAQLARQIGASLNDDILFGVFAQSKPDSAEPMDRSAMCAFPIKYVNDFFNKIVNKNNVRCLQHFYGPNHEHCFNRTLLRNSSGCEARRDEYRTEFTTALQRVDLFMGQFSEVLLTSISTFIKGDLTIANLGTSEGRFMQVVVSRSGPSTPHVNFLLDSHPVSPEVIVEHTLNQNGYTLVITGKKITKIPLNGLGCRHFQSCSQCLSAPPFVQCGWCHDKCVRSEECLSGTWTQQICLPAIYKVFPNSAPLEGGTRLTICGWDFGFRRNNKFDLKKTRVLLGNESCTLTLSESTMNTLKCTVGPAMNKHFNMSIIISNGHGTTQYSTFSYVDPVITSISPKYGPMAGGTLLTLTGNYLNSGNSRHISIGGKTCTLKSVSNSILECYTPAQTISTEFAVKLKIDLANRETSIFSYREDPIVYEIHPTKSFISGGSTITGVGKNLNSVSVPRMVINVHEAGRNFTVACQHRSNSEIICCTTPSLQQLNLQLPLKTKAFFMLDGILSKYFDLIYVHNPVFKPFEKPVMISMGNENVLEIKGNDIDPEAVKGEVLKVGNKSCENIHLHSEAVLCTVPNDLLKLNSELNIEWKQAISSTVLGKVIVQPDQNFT

B1: peptide N derived from the HGF α-chain (hairpin-loop domain of HGF, N-terminal Gln instead of PyrGlu) (peptide)
chain: QRKRRNTIHEFKKSAKTTLIKIDPALKIKTKKVNTADQCANRCTRNKGLPFTCKAFVFDKARKQCLWFPFNSMSSGVKKEFGHEFDLYENKDYIRN
notes: Expressed in E. coli and purified; In Assay 6 it was immobilized on the BIAcore sensor chip; also called Ex 1
Turning to B1, the binding result was “no binding”.
